A short description of this series: protein stability index of a GFP-peptide fusion (GPS, HEK-293T) (PSI 1-6); higher = more stable.
[1] abbreviates: treatment: DMSO, c terminus: a fixed tail appended.
[2] abbreviates: treatment: MLN4924 1 uM, 8 h, c terminus: a fixed tail appended.

± gives the standard deviation.
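Note: 24-mer peptide tiles fused after GFP, lentivirally expressed, FACS-sorted into six equal bins by GFP/DsRed ratio, decoded by Illumina sequencing, PSI is the read-weighted mean bin number.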

For ELGVIFYNCSCLVLDLQRIFALYS [PLD5], the protein stability index was found to be 3.24 ± 0.39 under setting [1] and 3.29 ± 1 under setting [2].
The sequence LALHPEAPGLYNHLPWQYHAGQGG [CCDC3] gave a protein stability index under setting [1] of 3.2 ± 0.5 and a protein stability index under setting [2] of 2.63 ± 0.28.
Turning to KVRPSHKRCIVILREIPETTPIEE [LARP4], the protein stability index under setting [1] amounted to 2.59 ± 0.21 and the protein stability index under setting [2] was 2.58 ± 0.35.
With SLRGRAWQYLSGGKVKLQQNPGKF [TBC1D10A], the protein stability index reads like this: under setting [1], 3.13 ± 0.52; under setting [2], 2.94 ± 0.29.
For LTKTFQGPAVVCGTPTSHVYMFKN [LYSMD4], the protein stability index runs as follows: under setting [1], 2.45 ± 0.22; under setting [2], 2.63 ± 0.15.
Taken in the same sequence, the figures for RFHYDRNPGTDAVAQTSLEEFNVL [FATE1] were 3.74 ± 0.24 and 3.78 ± 0.11.
Take PSSGPVTPQPTALTFAKSSWARQE [AUP1]: the protein stability index is, setting by setting: under setting [1], 4.2 ± 0.29; under setting [2], 4.27 ± 0.24.
DVIIEVNGVNVLDEPYEKVVDRIQ [PDZK1]: the protein stability index under setting [1] came to 3.73 ± 0.32 and the protein stability index under setting [2] was found to be 3.81 ± 0.97.
As to LGQEFDEVTADDRKVKSTITLDGG [FABP4], the protein stability index under setting [1] was determined as 5.16 ± 0.21 and the protein stability index under setting [2] turned out to be 5.32 ± 0.33.
Take RLLGSARPELGAALGIYGAPYAAA [IRX6]: the protein stability index by setting is: under setting [1], 2.27 ± 0.42; under setting [2], 2.44 ± 0.47.
YDCGEDFYRSTAPSEDIWKKFELV [MYCL]: the protein stability index came out at 2.96 ± 0.19 under setting [1] and 3.33 ± 0.22 under setting [2].
For LNDRLASYLDKVRALEEANTELEV [KRT17], the protein stability index is 4.03 ± 0.11 under setting [1] and 4.17 ± 0.17 under setting [2].
As to DYEFRVVAVNNIGRGPPSEPVLTQ [PTPRD], the protein stability index runs as follows: under setting [1], 3.08 ± 0.16; under setting [2], 3.04 ± 0.47.
Take EQALGKGCGADSKKKRPPQPPEES [PLK2]: the protein stability index by setting is: under setting [1], 5.24 ± 0.41; under setting [2], 5.36 ± 0.2.
Taken in the same sequence, the figures for GWWKRLFTLKEEKPKMYFMTMIVS [ARL6IP1] were 2.95 ± 0.66 and 2.04 ± 0.57.
The corresponding values for SSPQGVQLDIASQSLDQEILLKVK [BCL2L13] are 3.58 ± 0.4 and 3.83 ± 0.1.
Regarding LSLKRELSWYRGRRPRTAFTQNQI [HESX1], the protein stability index is, setting by setting: under setting [1], 2.41 ± 0.27; under setting [2], 2.66 ± 0.14.
Regarding EAAEPPKTPPSSCDSTNAAIAKQA [KMT5A], the protein stability index is, setting by setting: under setting [1], 5.42 ± 0.29; under setting [2], 5.34 ± 0.13.
Take LGQDRQVPLWGQLLLFLVFVIVLF [EMD]: the protein stability index runs as follows: under setting [1], 2.83 ± 0.58; under setting [2], 2.79 ± 0.76.
On to VLEHSLDREEEAIHHLVLTASDGG [PCDHGA10], for which the protein stability index reads like this: under setting [1], 4.66 ± 0.18; under setting [2], 4.84 ± 0.17.
As for ERKPAATARLSRRGTSLSPPPESS [KISS1], the protein stability index runs as follows: under setting [1], 5.16 ± 0.17; under setting [2], 5.26 ± 0.17.
As for MGGSGSRLSKELLAEYQDLTFLTK [CIB1], the protein stability index reads like this: under setting [1], 3.175 ± 0.031; under setting [2], 3.27 ± 0.28.
The corresponding values for DGLLGDNQIMPKAGLLIIVLAIIA [MAGEA3] are 3.11 ± 0.91 and 2.46 ± 0.34.
For the sequence RQVALGAMEAVRVNPLHVDSTWLL [SLC25A39], the protein stability index by setting is: under setting [1], 2.53 ± 0.27; under setting [2], 2.52 ± 0.069.
Consider YTSQITVEEGNVQTLLPAACLLQL [KLHL20], for which the protein stability index is 2.28 ± 0.061 under setting [1] and 2.3 ± 0.25 under setting [2].
For the sequence AAEERALFTDRMATRSTTQSNRTS [WEE1], the protein stability index came to 5.1 ± 0.2 under setting [1] and 5.17 ± 0.21 under setting [2].
Take AQTLHHKSCYNGRFQLLYVACGMV [DNAAF3]: the protein stability index is, setting by setting: under setting [1], 2.94 ± 0.63; under setting [2], 2.39 ± 0.72.
For DDISVDSLDFTKKILHTAWHPAEN [PPP2R2C], the protein stability index runs as follows: under setting [1], 3.12 ± 0.36; under setting [2], 3.12 ± 0.49.
As to MERPMSQADLELDYNPPRVQLSDE [CBY2], the protein stability index was determined as 5.36 ± 0.22 under setting [1] and 5.22 ± 0.21 under setting [2].
Regarding QSHISDMSVILSMDNNRNLDLDSI [KRT71], the protein stability index is, setting by setting: under setting [1], 3.87 ± 0.4; under setting [2], 3.72 ± 0.35.
The corresponding values for NLLSIALYLLSGSIIAVAMQRGAR [POMT2] are 3.2 ± 0.36 and 3.34 ± 0.13.
The corresponding values for VTHTLTMRQRISRVEESALRALRE [PPEF2] are 3.5 ± 0.38 and 3.86 ± 0.012.
Take PRESTDFSSSSQEAFAASAVGSGE [ZBTB22]: the protein stability index is, setting by setting: under setting [1], 5.22 ± 0.26; under setting [2], 5.31 ± 0.27.
As for LPACTLCAGPLEDAVTIPCGHTFC [TRIM15], the protein stability index was determined as 3.818 ± 0.022 under setting [1] and 4.16 ± 0.35 under setting [2].
On to EKPYKCPECGEIFAHSSNLLRHQR [ZNF263], for which the protein stability index by setting is: under setting [1], 3.07 ± 0.86; under setting [2], 3.76 ± 0.93.
Consider KLKKGICEALEDSDGRQDSPAGEL [MATN2], for which the protein stability index by setting is: under setting [1], 5.3 ± 0.28; under setting [2], 5.31 ± 0.15.
As for SIVAVGFHIFRTLEVNRLMGKLLQ [PKD2L1], the protein stability index runs as follows: under setting [1], 3.03 ± 0.56; under setting [2], 2.55 ± 0.5.
The corresponding values for IAENGVSERDSEAAKQNHVTADDF [EHMT1] are 5.39 ± 0.15 and 5.42 ± 0.11.
Turning to AAAHASVDIKDVLDFYKQWKEIG [SMG5], the protein stability index (treatment: DMSO, c terminus: native) stood at 3.45 ± 0.3 and the protein stability index (treatment: MLN4924 1 uM, 8 h, c terminus: native) worked out at 3.54 ± 0.55.
Consider CFEASDCKESSPMPVICGPEENYP [NANOGP8], for which the protein stability index under setting [1] was 3.98 ± 0.32 and the protein stability index under setting [2] is 4.24 ± 0.26.
In the case of AVNSGGPLESIDHSVTGFLCEPDP [ALG2], the protein stability index runs as follows: under setting [1], 4.82 ± 0.21; under setting [2], 4.91 ± 0.22.
With LEEFQLALKHYVESASSQSGCLRI [NECAB1], the protein stability index was 2.21 ± 0.36 under setting [1] and 2.16 ± 0.17 under setting [2].
Consider KFLVGTVGSDPLIKSDEECRDLVD [KLHL20], for which the protein stability index runs as follows: under setting [1], 4.41 ± 0.78; under setting [2], 4.14 ± 0.47.
As to VYVSNMTDKLVTPGKYFSAAEYHA [IQUB], the protein stability index turned out to be 2.14 ± 0.47 under setting [1] and 1.96 ± 0.15 under setting [2].
As to LHKFPYRMVPALPPKRMLGADREF [SNX8], the protein stability index stood at 2.55 ± 0.15 under setting [1] and 2.67 ± 0.32 under setting [2].
Take LGAVAVFAVGYIKISWSTWGEMTL [SLC19A2]: the protein stability index runs as follows: under setting [1], 2.97 ± 0.68; under setting [2], 2.97 ± 0.73.
GGGSSRISSVLAGGSCRAPSTYGG [KRT16]: the protein stability index under setting [1] amounted to 3.04 ± 0.59 and the protein stability index under setting [2] came to 3.46 ± 0.18.
RITGLSPGRSALIVAVLCYINLLN [SPNS1]: the protein stability index was found to be 2.35 ± 0.47 under setting [1] and 2.14 ± 0.29 under setting [2].
On to NVLKSYIGLGHIYSGTFALIGAAA [CLCN6], for which the protein stability index by setting is: under setting [1], 3.63 ± 0.91; under setting [2], 3.04 ± 0.32.
The corresponding values for YLYFLFCPTLIYRETYPRTPYVRW [SOAT2] are 2.67 ± 0.76 and 2.58 ± 0.29.
Regarding GPYDPNSVRISFAKGWGPCYSRQF [SMAD6], the protein stability index was found to be 2.19 ± 0.17 under setting [1] and 2.25 ± 0.18 under setting [2].
In the case of AYQHSGHLESKDINQEELRALEEV [C10orf62], the protein stability index by setting is: under setting [1], 5.41 ± 0.29; under setting [2], 5.4 ± 0.17.
As to ENDGFVFKMPWKPTHPSSTHALAE [CDC25B], the protein stability index under setting [1] stood at 3.55 ± 0.44 and the protein stability index under setting [2] was determined as 3.36 ± 0.16.
With VIQAVQKSEEGHPFKAYLDVDITL [RTN3], the protein stability index was found to be 2.23 ± 0.59 under setting [1] and 2.18 ± 0.39 under setting [2].
TFWASWRAFAQIGPARSGFRLETL [MIR22HG]: the protein stability index is 2.73 ± 0.42 under setting [1] and 2.47 ± 0.41 under setting [2].
VDHQGVSWYHWKGFEFSVPFTEMK [TNXB]: the protein stability index by setting is: under setting [1], 2.45 ± 0.55; under setting [2], 2.49 ± 0.74.
With YRVWKKMLASVESVPFSFDPNTAA [TRIM35], the protein stability index turned out to be 2.06 ± 0.28 under setting [1] and 2.3 ± 0.14 under setting [2].
Turning to EDLTAKRKRMKMDKTCSKTKNKSK [FAM9B], the protein stability index under setting [1] stood at 4.98 ± 0.43 and the protein stability index under setting [2] is 5.16 ± 0.34.
The corresponding values for SRTQEPSLGKQKVFIIRKSLLDEL [SOAT2] are 2.04 ± 0.31 and 2.23 ± 0.34.
As to QEALDPGPFDQGSPFAQELLDDGQ [ELF3], the protein stability index by setting is: under setting [1], 5.58 ± 0.24; under setting [2], 5.32 ± 0.14.
In turn, GTPADTGDLSPGHGASAPSVSREA [PWWP2B] had a protein stability index under setting [1] of 5.29 ± 0.18 and a protein stability index under setting [2] of 5.56 ± 0.22.
The corresponding values for ETDDPRRYQKYGYIGTHEYPHFSH [OAS1] are 2.88 ± 0.15 and 3 ± 0.19.
For the sequence AKRLLDADDAAAVAAKCPRLSECS [TRIB1], the protein stability index is, setting by setting: under setting [1], 4 ± 0.51; under setting [2], 4.11 ± 0.42.
Regarding LLRTARVRRECWFLPTALLCAYGF [SLC19A2], the protein stability index under setting [1] worked out at 2.54 ± 0.8 and the protein stability index under setting [2] was 2.54 ± 0.43.
Regarding VTLALFFVLYFLLACWTYGISVPS [CLCN6], the protein stability index is 2.95 ± 0.27 under setting [1] and 2.98 ± 0.19 under setting [2].
The corresponding values for SESQLASTESDKPTTGRVYESDSS [C18orf25] are 5.5 ± 0.15 and 5.44 ± 0.26.
As to PASTPSVLSSEQEFQMFPKSRLSS [ETS2], the protein stability index under setting [1] worked out at 4.57 ± 0.21 and the protein stability index under setting [2] is 4.57 ± 0.24.
GVRDSGSPPLHANTSLHVFVLDEN [PCDHGC5] came in with a protein stability index under setting [1] of 3.51 ± 0.21 and a protein stability index under setting [2] of 3.51 ± 0.24.
Take HSAVARISRAQYNALTLTFQRAMH [STX11]: the protein stability index worked out at 2.08 ± 0.31 under setting [1] and 2.14 ± 0.19 under setting [2].
SFSSLEPDNEQLMEEVISPRQVSY [IQUB]: the protein stability index stood at 4.29 ± 0.2 under setting [1] and 4.56 ± 0.22 under setting [2].
Taken in the same sequence, the figures for CSITGDSSRVIAASYDKTVRAWDL [WDR88] were 2.57 ± 0.2 and 2.6 ± 0.2.
Taken in the same sequence, the figures for NGLEDIDRILERIEDSTGLNRPGP [TCF25] were 4.48 ± 0.21 and 4.75 ± 0.21.

Values taken from the supplement of paper PMC10567573.
